Laboratory results from PMC4183432, “Evidence of a Bacterial Receptor for Lysozyme: Binding of Lysozyme to the Anti-σ Factor RsiV Controls Activation of the ECF σ Factor σ^V” (PLoS Genetics, 2014).

Molecular target: T1, GST-RsiV^59–285 (B. subtilis, UniProt O05403 59-285)
T1 construct: plasmid pKBW204 (pDEST15); source: E. coli BL21(DE3), purified (Glutathione HiCap Matrix); not shown: GST, N-terminal, kept
T1 sequence (looked up): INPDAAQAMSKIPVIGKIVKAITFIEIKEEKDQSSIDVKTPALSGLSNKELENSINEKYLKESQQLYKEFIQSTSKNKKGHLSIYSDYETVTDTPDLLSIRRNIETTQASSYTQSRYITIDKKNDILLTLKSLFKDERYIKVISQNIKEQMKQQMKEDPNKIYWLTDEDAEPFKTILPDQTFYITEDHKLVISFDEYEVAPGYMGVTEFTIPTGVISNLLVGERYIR
Experiment: pull-down; 2 mg purified GST-RsiV^59–285 on a Glutathione HiCap Matrix column in PBS-EW; 2 mg of HEW lysozyme, human lysozyme or mutanolysin applied; washed with PBS-EW, eluted with TNGT; SDS-PAGE
Details: both partners purified

B1: human lysozyme (enzyme, UniProt P61626 19-148, looked up)
chain: KVFERCELARTLKRLGMDGYRGISLANWMCLAKWESGYNTRATNYNAGDRSTDYGIFQINSRYWCNDGKTPGAVNACHLSCSALLQDNIADAVACAKRVVRDPQGIRAWVAWRNRCQNRDVRQYVQGCGV
notes: Human lysozyme, a C-type lysozyme (58% identity to HEW lysozyme); also called HUM lysozyme
**Q.** Does B1 bind?
**A.** binds
